How the values were obtained:
Assay in all cases: ELISA
Parameters in all cases: key: 0 = <0.5 OD, 1 = 0.5-1.0 OD, 4 = 1-4 OD
199 = target: T1, 199
T1 construct: H3-7 K4-1; also called PIN199
From the text: (§1) Before specificity screening, all of the clonal immunogen-positive hybridoma supernatants were re-screened on the immunogen, a non-family member Id protein, and KLH, if animals were immunized with Id protein that has been conjugated KLH. As described above, this screen identifies HC-specific clones but not mAbs against the light chain constant region. Clones identified positive to the immunogen and KLH were […]. Those found positive to the immunogen but not to the non-family member Id protein or KLH were tittered on the immunogen. In addition to normalizing for different binding affinities and concentrations, each hybridoma supernatant was titered on the fully human form of the Id protein used as the immunogen(s) for the V regions. The titer or dilution resulting in an ELISA absorbance of 2.5 to 3 OD after 30 min. incubation time was then used. Hybridoma specificity was determined by screening against available Id proteins expressing the same HV and KV or LV as well as different HV, KV and LV. The final ELISA results are expressed as follows: 0 (<0.5 OD), 1 (0.5-1.0 OD), or 4 (1-4 OD). Positive hybridoma supernatants are categorized according to specificity: anti-Id, anti-constant region (HC, KC or LC), or V region (HV, KV, LV family or family member).
(§2) In general, the fully human Id protein or proteins containing the immunogen V regions were coated onto 96-well ELISA plates at 2.5-5 ug/mL in carbonate buffer pH 9.6 and incubated at 4° C. for up to 14 days. On the day of the ELISA, plates were brought to RT and blocked with Tris-Tween-20, pH 7.6 for 15-60 min. at RT. Following a NaCl and Triton X-100 wash, diluted hybridoma cell culture supernatants were incubated overnight at 4° C. Hybridoma supernatant dilutions ranged from 1:2 to 1:25 and were prepared in PBS with 5% BSA. Plates were washed and incubated with HRP-conjugated goat anti-mouse IgG-specific detecting antibody. A chromogenic substrate (TMB) was used to measure the amount of mouse antibody bound to each well. The reaction was stopped at or before 30 minutes with IN H2SO4 and plates were read immediately. Absorbency readings at 450 nm ranging between 0-4 OD and using Molecular Devices plate reader and SOFTMAX PRO software.

585 = target: T2, 585
T2 construct: H4-59 K4-1; also called PIN585
From the text: as §1, §2

1154 = target: T3, 1154
T3 construct: H4-61 K4-1; also called PIN1154
From the text: as §1, §2

898 = target: T4, 898
T4 construct: H3-15 K4-1; also called PIN898
From the text: as §1, §2

192 = target: T5, 192
T5 construct: H5-51 K4-1; also called PIN192
From the text: as §1, §2

1175 = target: T6, 1175
T6 construct: H3-53 K4-1; also called PIN1175
From the text: as §1, §2

712 = target: T7, 712
T7 construct: H3-23 K4-1; also called PIN712
From the text: as §1, §2

Measured: grade

B1: mAb clone 12C3 (antibody, V domains shown)
VH: EVKLVESGGGLVQPGGSLSLSCAASGFTYTDYYMNWVRQPPGKALEWLALIRNKANGYTTEYSASLKGRFTISRDNSQSILYLQMNALRAEDSATYYCVRENINYYFDYWGQGTTLTVSS
VL: DIVLTQSPASLAVSLGQRATISCRASESVEYFGASLMQWYQQKSGQPPKLLIRAATNVESGVPARFSGSGSGTDFSLNIHPVEEDDIAMYFCQQSRKVPWTFGGGTKLEIKR
notes: Mouse hybridoma mAb, fusions 20/21 (PIN628 V regions)
4: all assays above

Source: patent US20070134249A1 (GENITOPE, published 2007)
